Article PMC10724965, “FRIZZLE PANICLE (FZP) regulates rice spikelets development through modulating cytokinin metabolism”

Molecular target: MBP-FZP (Oryza sativa, UniProt Q8H3Q1 1-318)
Experiment: EMSA; 5 nmol protein, 2 nmol probe (so in the source); shift substantially weakened by excess unlabeled probe; EMSA: 10 uL, 2 uL 5x EMSA/Gel-shift binding buffer (Beyotime?), 5 nmol protein, 2 nmol biotin-labeled probe; salt, pH and temperature not given
Details: protein: recombinant; tags: MBP (pMAL-c2x); label: biotin; blunt

Chain of MBP-FZP (Q8H3Q1 whole entry): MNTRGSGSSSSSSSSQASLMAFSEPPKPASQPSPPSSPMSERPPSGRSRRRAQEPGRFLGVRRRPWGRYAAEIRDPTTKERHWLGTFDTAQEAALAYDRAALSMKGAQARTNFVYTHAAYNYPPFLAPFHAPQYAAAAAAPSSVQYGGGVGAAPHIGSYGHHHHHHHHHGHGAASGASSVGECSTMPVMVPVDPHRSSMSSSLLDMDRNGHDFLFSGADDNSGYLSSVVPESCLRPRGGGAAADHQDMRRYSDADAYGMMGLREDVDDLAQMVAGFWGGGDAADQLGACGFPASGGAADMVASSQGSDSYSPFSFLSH

B1: EMSA-DST-probe (GCC-box, DST promoter) (dsDNA)
DNA 1: GCACAAGACCCGCAGGCCCAATGGCGAGCCGCCACGTGTACCCGCGCCTCCCCTCCCCGGCC
DNA 2: GGCCGGGGAGGGGAGGCGCGGGTACACGTGGCGGCTCGCCATTGGGCCTGCGGGTCTTGTGC
B1: binds.
